Experimental data taken from the DeepSol protein solubility set.

Test: soluble on expression in E. coli; label from the status in PepcDB or PDB records

Sequence: SQELRGEIKLFCSVTASYSHLPELLSSFRLKHPYIEFKLLTGDPAQAIDKILHDEADIAISAMPEQLPSRIEFATISEIPLSVIAPLGISSFMDELQKEQPDWNEIPFIVPESGTARDRANTWFKQMKIKPNIYAQIAGHEAIV
- soluble on expression in E. coli: not soluble

Sequence: KMGPEYTKMQNLVKSEGLHTVCQEAGCPNIYECWEDREATFLIGGDQCTRRCDFCQIDTGKPEALDRDEPRRVGESVVTMDLNYATITGVARDDLEDGGAWLYAETVRQIHAQTAGREAGRTKVELLAPDFNAEPDQLAEVFSARPEVFAHNVETVPRIFKRIRPGFRYERSLKVITEARDYGLVTKSNLILGMGETREEVSEALRQLHDAGCELITITQYLRPSVRHHPVERWVKPHEFVELKEEAEEIGFSGVMSGPLVRSSYRAGRLYQMAMELRQSAAPQGGAQVASQAV
- soluble on expression in E. coli: not soluble

Sequence: MGSDKIHHHHHHSNKPEGVIGPFQLVIETKESYLPNDPLDVRVKVFNREKKKENLVLEDFVFSIKRENDTVYEFHFPQRVEKEMEAFESVLVFDLLREEELSNLPGGNYTITVSVKLNGQRVVISKVVSVIEKWQIEVEDLKDFYFPYENVHFFVYLENISSKSRKIRVESIGLIILKGNEAVFERDIPIEKDFVINPMMVEQIHEVSFSAPKESGDYIIKLKLKTESSLIEKSIPLFVTREYQKDLKGLSLVIEGKKFVASGERYDFSVKLLNEEKKRKYIVLKNIMIVLTHKEPVFSYAYSEEYRMTIEGYSSREIFKTTSYDIIKLEDPGTYKLIVVIESEEDRLMKEMEIVVSE
- soluble on expression in E. coli: not soluble

Sequence: MSLAELDLTGGMDEARGDIADLLGKEERKILTTGNAEIDKKIADGLPLGSLTLIEGENDTGKSVLTQQFIWGSMHNNLRVDLFSTELTTKSFLTQMESMSLDISDFFAWGYIRLFHCHLVEFKWTPDAMNDILERIITHVKFSNTDVAIIDSLTIFTEYTTNEAVLTFLTQAKNICDQGKTILITMHSYAFTDEVLTRVRSICDAHLLLMRKLMGDKYVMVLEVVKVRGARKTTGNLVSFEVHPGYGMKIIPVSVAKVEGHHHHHH
- soluble on expression in E. coli: soluble

Sequence: MAIEIKLETPRQEAVLRLIDLSNAYMASLYPAESNHLVDIGALEKDNVSFFVARHDGRVVGCGALVEAGDGTAEVKRMFVDPEARGLRIGKLIMDTLVARGTELGLSAIRLETGISQPEAIGLYRKEGFVEIEAFAPYKPDPLSLFMERAL
- soluble on expression in E. coli: not soluble

Sequence: MTYPDLSRGAGPVAAGPQPTGLADLLERVLDKGLVIAGDIRVNLLDIELLTIKLRLVIASMETAQQAGIDWWTRDPWLKASESELLEENRRLREQLAQADTNGRKRIEGKESHD
- soluble on expression in E. coli: not soluble

Sequence: MSNQYINEPITTGKVTLETTAGDIEIELWTKEAPLACRNFIQLCMENYYKGTVFHRLVKNFILQGGDPTATGTGGESIYGKPFKDEIHQRLKFNRRGIVGMANAGRDDNGSQFFFTIGDRGAPELDKKHTIFGKVTGPTLFNMLKITEVETEGDRPVTFYKITGARIDNNPFDDLKPREKRKKEKSERRKEPKVVETKKTNLLSFGDEVEEDEQELAVFNKV
- soluble on expression in E. coli: not soluble

Sequence: MGSDKIHHHHHHMSRNTEATEEVGIWTGGRLNYKEGFFTQLPTDELAKGISEEVVRAISAKRNEPEWMLEFRLNAYRAWLDMDEPHWLKAHYDKLNYQDYSYYSAPSCGNCDDSCVSQPGAVQQTGANTFLSKEVEDAFEQLGVPVREGKEVAVDAIFDSVSVATTYREKLAEQGIIFCSFGEAIHDHPDLVRKYLGTVVPGNDNFFAALNAAVASDGTFIYVPKGVRCPMELSTYFRINAEKTGQFERTILVADEGSYVSYIEGCSAPVRDSYQLHAAVVEVIIHKDAEVKYSTVQNWFPGDNNTGGILNFVTKRALCEGENSKMSWTQSETGSAITWKYPSCILRGDNSIGEFYSVALTSGHQQADTGTKMIHIGKNTRSTIISKGISAGHSQNSYRGLVKIMPTATNARNFTQCDSMLIGADCGAHTFPYVECRNNSAQLEHEATTSRIGEDQLFYCLQRGISEEDAISMIVNGFCKDVFSELPLEFAVEAQKLLAISLEHSVG
- soluble on expression in E. coli: not soluble

Sequence: MTVANWQVRDLTLILRTGEMQSRLEQARTDFGALLPETVYFQPSAIRLGEFDDEYILTRQELVYVYLREDIARQCALRRHLPSNSSNSGIMATAIPPWLMDARRLNRVMQERCDQGGLVHYYQGPHTNQFFLAIMPSNCFVRFGTDVINNENYGFYARGGNYTEEGEDDDDEMDDEDETGGAETRDSQTGNLINYPIIALGSCHLSALEHHHHHH
- soluble on expression in E. coli: not soluble

Sequence: MQIIRRLMFVVALICPLITQAEPQVAKLYQRELTRNSYAIGGLNAPVALFAAQVHQESQWNVTALSHVGAQGLAQFMPQTANWIATQYPELKTNQPFNPSWALRALVRYDYWLYQRIHAVTDCDRWAFALSAYNGGLGWVQRDKRKARIQGLDPMSYWHAVESVNSGRSRANFIENRGYPKRIIYRWQPLYLHWGNSVCLDD
- soluble on expression in E. coli: not soluble

Sequence: MVAEVCSMPTASTVKKPFDLRSKMGKWCHHRFPCCRGSGKSNMGTSGDHDDSFMKMLRSKMGKCCRHCFPCCRGSGTSNVGTSGDHENSFMKMLRSKMGKWCCHCFPCCRGSSKSNVGAWGDYDHSAFMEPRYHVRREDLDKLHRAAWWGKVPRKDLIVMLRDTDMNKRDKEKRTALHLASANGNSEVVQLLLDRRCQLNVLDNKKRTALIKAVQCQEDECVLMLLEHGADRNIPDEYGNTALHYAIYNEDKLMAKALLLYGADIESKNKV
- soluble on expression in E. coli: not soluble

Sequence: MSFSKLLDLLTGREAQRTAIDWDAKYGTDTRSTVELHGLTISHDSRRFGERYQASDPSALSDALAFVGLDPRSYRFVDLGCGKGRMLIVAAELGFKSCIGVEFADELAQTAKANAAAAGFDTISVVHGDAGAYAFQDEPFVLYLFNPFSHQIMQRVRDNLLKLRRAEYYVIYKNPRERRIFDEMQTLRYLGTPPAHKGVWGVHVWGPRGELEHHHHHH
- soluble on expression in E. coli: not soluble

Sequence: MGSDKIHHHHHHMSMDKELITAQALAEALHLSVETIWRYTREKKIPCIELGNKQYRYKKDDVIKALSNGSIQESASSYETQEPRKLTYQDYLLLPEEPGYHFEILDGMLIKEPAPNVLHQRVSRRLQRILEDYFWKVDPKGEVFDAPLDVTLHDVNVVQPDLLYVASEQEVIVKDTRIDGPPMLVVEIMSPSTSRKDRLQKRRIYQEARVEHYWLVNPQEKMLECFAWRDGVYALVAGGMEEELVEHPDFPGLSIALRALWNREI
- soluble on expression in E. coli: not soluble

Sequence: MSLRIQDGTMRYTYKGVPTYKNPFDLALYQMLLWQQKPRTLIEIGSKWGGSALWFADMMCSFGVDCVIHSIDITPPSISVPGVTFHRGDGRDLAATLPADLMESLPRPIFVIEDADHHCETTLAVLRFFDRWLVAGEYIAVEDGIVDDLYGPEFVARLMGGPRRAVELFLRDRGQNYEIDTGLCDHFGTNVTWNVNGYLRRVREGHHHHHH
- soluble on expression in E. coli: not soluble

Sequence: MNVVNNSRDVIYSSGIVFGTSGARGLVKDFTPQVCAAFTVSFVAVMQEHFSFDTVALAIDNRPSSYGMAQACAAALADKGVNCIFYGVVPTPALAFQSMSDNMPAIMVTGSHIPFERNGLKFYRPDGEITKHDEAAILSVEDTCSHLELKELIVSEMAAVNYISRYTSLFSTPFLKNKRIGIYEHSSAGRDLYKPLFIALGAEVVSLGRSDNFVPIDTEAVSKEDREKARSWAKEFDLDAIFSTDGDGDRPLIADEAGEWLRGDILGLLCSLALDAEAVAIPVSCNSIISSGRFFKHVKLTKIGSPYVIEAFNELSRSYSRIVGFEANGGFLLGSDICINEQNLHALPTRDAVLPAIMLLYKSRNTSISALVNELPTRYTHSDRLQGITTDKSQSLISMGRENLSNLLSYIGLENEGAISTDMTDGMRITLRDGCIVHLRASGNAPELRCYAEANLLNRAQDLVNTTLANIKKRCLL
- soluble on expression in E. coli: not soluble

Sequence: ADGQQGAPLNSPNTYDVTTWRIKAHPEVTAQSDIGAVINDIIADIKQRQTSPDARPGAAIIIPPGDYDLHTQVVVDVSYLTIAGFGHGFFSRSILDNSNPTGWQNLQPGASHIRVLTSPSAPQAFLVKRAGDPRLSGIVFRDFCLDGVGFTPGKNSYHNGKTGIEVASDNDSFHITGMGFVYLEHALIVRGADALRVNDNMIAECGNCVELTGAGQATIVSGNHMGAGPDGVTLLAENHEGLLVTGNNLFPRGRSLIEFTGCNRCSVTSNRLQGFYPGMLRLLNGCKENLITANHIRRTNEGYPPFIGRGNGLDDLYGVVHIAGDNNLISDNLFAYNVPPANIAPAGAQPTQILIAGGDANVVALNHVVSDVASQHVVLDASTTHSKVLDSGTASQITSYSSDTAIRPTP
- soluble on expression in E. coli: soluble

Sequence: MSLNEQAPVIAVLLTERTRRMMLDDAAIAQLNALGEVRWPTGAAIDATDVDQLLHGAVACLTGWGTPPFDPAARQRHPQLALVAHSAGSVRTLVPARLFDDGIRVTHAASKIAASVAEFVVAEALLAMRGIHRLHHQLRNGGEWLDVRAAVPQKLLGSRTVGIVGAGYVGRAVMRLLVPFGCRVLVVDPFLHDSEAAALGVFRAGLNDMLAQADMVSLHAPVLPETRRMIGARELALLRPGTLFINTARAELVDEAALLAEIRSGRIEAALDVFDNEPLPQDSPFRDPALANVTISPHAAGHTNEAHLAQGQAMVDEIGRLLRREPLQHEVSREGHHHHHH
- soluble on expression in E. coli: not soluble

Sequence: GLNPPSAFSGAALACLEKMQASGVEEKCIHIFLIQHALVRKGETGYIPEKSISPVESLPFLQGIETKGENTALLRQAVVLKLNGGLGTGMGLNGPKSLLQVKNGQTFLDFTALQLEHFRQVRNCNVPFMLMNSFSTSGETKNFLRKYPTLYEVFDSDIELMQNRVPKIRQDNFFPVTYEADPTCEWVPPGHGDVYTVLYSSGKLDYLLGKGYRYMFISNGDNLGATLDVRLLDYMHEKQLGFLMEVCRRTESDKKGGHLAYKDVIDETTGQTRRRFVLRESAQCPKEDEDSFQNIAKHCFFNTNNIWINLMELKKMMDEQLGVLRLPVMRNPKTVNPQDSQSTKVYQLEVAMGAAISLFDRSEAVVVPRERFAPVKTCSDLLALRSDAYQVTEDQRLVLCEERNGKPPAIDLDGEHYKMIDGFEKLVKGGVPSLRQCTSLTVRGLVEFGADVSVRGNVVIKNLKEEPLIIGSGRVLDNEVVVVE
- soluble on expression in E. coli: soluble

Sequence: MGSDKIHHHHHHMRELPPLDLYETEAAERAGMAAGEPSAGDVELPAEPLLAGEARGQPFTRQSVAPLATIDLSTVPADDVTPRRWIVPDLIPDRNVTDISGDGGLGKSLLALQLGIAMAAGRDWLGTMPEPGGFLYVSCEDEPNEVLRRRNAVLAGMGLTPGDIRNLYLADLTDAEGTELAAPGKAALELTALHHRFEVTIRQLRPKCAVLDTRADVFGGNELSRVQVRMFVRSLRRLCIAHDMAIILLSHPSVSGMASGSGQSGSTGWGNSVRSRLYLTAPKSEGDTDLDPDIRILSSKKANYGPHGAEIVLRWDRGMFRPDRDALASLDRDQQDREIEVTFLQLLSKREKEGRRANASSGPNYAPKVLAEMNGTISRAKFRGAMERLFAKEEIASVSYEANGKGSTQLVLTDKGMSRLRIPF
- soluble on expression in E. coli: not soluble

Sequence: GSKVEDPKDFPSELLSFLSHAVFSNRTLACFAIYTTKEKAALLYKKIMEKYSVTFISRHNSYNHNILFFLTPHRHRVSAINNYAQKLCTFSFLICKGVNKEYLMYSALTRDPFSVIEESLPGGLKEHDFNPESS
- soluble on expression in E. coli: soluble

Sequence: MGSDKIHHHHHHMEGKVKKAFPGGNTSQGSYSFFDYIIPENVKRVFCLKGGPGVGKSSLMKKIYKEFLHRGYDIDLYHCPSDPSSLDGLVIKKLGVVLMDATAPHTMDPKLPGALDEIINLGDYWNTEELEKNKQEISVYDKDISNSFKRAFKFLKSAEPIFRDIEEKYSDCMDYGKVNLVTEEFIKRLFDGVKSTGNLKREKHLFGSAITPVGCLDYTENILKDVKKVYYLDGEIGTGKTTLLNKVYKKAIEKGLNVEVYHYPLIPEKIETVLLTDLDIGITISTTFKEEDTIDLNQFLNREKLLKYEEDIKFDEKVLDDLICWAVLNLKRAKSKHDIIESYYSPNMRFDEVGKLRDKLIKRILKYEENL
- soluble on expression in E. coli: not soluble
